Data published in PMC6803640, “Oligomeric state, hydrodynamic properties and target recognition of human Calcium and Integrin Binding protein 2 (CIB2)” (Scientific Reports, 2019).
“And” between values parts separate entries of the source, which are not always exact repeats. Equal values may be shown once.

Key:
[1] = target: integrin αIIb peptide (Homo sapiens) (UniProt P08514); assay: SPR; settings: cited from earlier work
[2] = target: T1, human CIB2 (Homo sapiens, UniProt O75838); assay: SPR interaction of α7B peptides with immobilized CIB2; format: binding; settings: His-CIB2 capture (7.5 µM peptide, or 230 nM–30 μM) and amine-coupled untagged CIB2 (7.5–30 µM); 1 mM Mg^2+, 2 mM Ca^2+; experiments repeated 4 times
T1 construct: made in house
T1 sequence (O75838 1-187): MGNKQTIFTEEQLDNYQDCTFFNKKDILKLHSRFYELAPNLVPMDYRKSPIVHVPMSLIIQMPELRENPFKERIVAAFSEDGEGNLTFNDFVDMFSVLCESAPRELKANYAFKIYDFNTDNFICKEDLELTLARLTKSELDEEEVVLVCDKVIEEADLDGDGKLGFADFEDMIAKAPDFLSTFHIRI
Description: SPR was also used to study quantitatively the interaction of CIB2 with one of its established targets, namely the cytoplasmic domain of integrin α7B[3],[7]. Three different peptides were used in the interaction experiments. A peptide corresponding to the membrane proximal segment of the cytoplasmic domain of α7B integrin (α7B_M), another peptide with the same amino acid content, but randomized sequence (α7B_Scrb) and a peptide covering the C-terminal region of the cytoplasmic domain of α7B integrin (α7B_C). Three different approaches were used. In a first approach, His-tagged CIB2 was initially coupled to the surface of a His-cap sensor chip (see Methods), thus ensuring homogeneous site-specific orientation, and then blocked via standard amine coupling. […] The minor differences in the spectra at the level of the phenylalanine band can be ascribed to the TEV-protease recognition site (ENLYFQ), uncleaved in the His-tagged protein. […] In a third approach, we used the same low levels of CIB2 immobilization via amine coupling described in the experiments to probe CIB2 dimerization (100–200 RU) and flowed the three peptides.
The second approach (direct peptide immobilization) led to very low signals and unreproducible results and was not pursued any further. […] In spite of such differences, which might reflect both the heterogeneity of the surface and the different chemistry of immobilization, interaction results were consistent with one another. […] It should be noted that both Huang et al.[7] and Häger et al.[3] used peptides from mouse integrin, while we used the corresponding human sequences, which in the case of α7B_C lacks the tryptophan residue present in the mouse sequence. It is not uncommon that fluorescence spectroscopy interaction studies based on the peptide intrinsic fluorescence (CIB2 has no tryptophan residue) reveal some non-specific binding, especially when a highly hydrophobic protein such as CIB2 is the ligand. […] It cannot be excluded that a similar phenomenon occurred for murine α7B_C in the work by Häger et al.[3]. Our present results, based on accurate, label-free interaction studies clearly identify the region covered by α7B_M as the preferential binding site of CIB2 with α7B integrin.
SPR titrations of α7B_M over homogeneously coupled CIB2 (approach 1) gave very reproducible results and were performed both in the presence of 1 mM Mg^2+ and in the co-presence of 1 mM Mg^2+ and 2 mM Ca^2+. Peptide concentration was varied in the 230 nM–30 μM range. As anticipated, sensorgrams could not fit to a 1:1 binding model, and the kinetic model that better fit the data was a bivalent analyte model (see Methods), in which one α7B_M peptide could bind to two CIB2 molecules. According to this scheme, binding of the peptide to the first CIB2 molecule would direct the binding to the second one, thus resulting in two sets of kinetic constants.
Details of the protein and peptide immobilization procedures and experimental settings are elucidated in the Supplementary Information.
Kinetic data were fitted according to a bivalent analyte model, were a CIB2 monomer (L) can bind an α7B_M peptide (A), and the resulting complex (AL) can bind to a second CIB2 molecule (AL2), with all processes being possibly reversible, as follows: A+L→ka1ALAL→kd1A+LAL+L→ka2AL2AL2→kd2AL+L […]

[3] = target: T1, human CIB2; assay: Cross-linking (DSBU)/MALDI-TOF-MS of CIB2 with α7B peptides; format: binding; settings: 10 µM CIB2, 5, 10, 20 µM peptide, 50-fold DSBU; 20 mM HEPES pH 7.5, 1 mM Mg^2+, 2 mM Ca^2+, room temperature
Protocol: CIB2 samples were cross-linked with DSBU in the presence of peptide α7B_M or α7B_Scrb as described in ref.[14] Briefly, 10 µM CIB2 was diluted in 20 mM HEPES, pH 7.5, 1 mM DTT, 1 mM Mg^2+ and 2 mM Ca^2+ and incubated with increasing peptide concentrations (5 µM, 10 µM, and 20 µM) for 10 min at room temperature. Then, 50-fold molar excess of DSBU was added and the reactions were conducted for 20 min at room temperature. As control, CIB2 was treated with DSBU without peptide. Reactions were blocked by adding ammonium bicarbonate to a final concentration of 20 mM.
Cross-linked CIB2 samples were desalted via ZipTip C4 tips (Millipore) before MALDI-TOF-MS analysis (Ultraflex III MALDI-TOF/TOF mass spectrometer, Bruker Daltonik, Bremen) was conducted using sinapinic acid as matrix. For further details see Supplementary Methods. Baseline subtraction and spectra smoothing were performed. […]
Cross-linking reactions and Mass Spectrometry
Cross-linking reactions were performed with 10 µM CIB2 (in 20 mM HEPES pH 7.5, 150 mM KCl, 1 mM DTT, 1 mM Mg2+, 2 mM Ca2+) and increasing concentrations of peptides α7B_M and α7B_Scrb, ranging from 0.5:1 to 2:1 peptide:protein ratios. After incubating the samples for 10 minutes at room temperature, DSBU (freshly prepared solution, dissolved in neat DMSO) was added to the mixture at 50-fold molar excess compared to CIB2 concentration. As the final volume of the reaction mixture was 50 µL, 1 µL of 25 mM DSBU was added to each sample. After 20 minutes, the cross-linking reactions were quenched by adding ammonium bicarbonate to a final concentration of 20 mM. Samples were incubated for 10 minutes before SDS-PAGE analysis was performed (data not shown). Samples for MALDI-TOF-MS measurements were desalted by ZipTip C4 (Millipore) and desalted protein was eluted with 70% (v/v) acetonitrile / 1% (v/v) formic acid. Each sample was mixed with a saturated solution of sinapinic acid (in 50% (v/v) methanol / 0.1% (v/v) TFA) at 1:1 ratio and spotted onto the MALDI target. […]

[4] = test system: CIB2; settings: peptide intrinsic fluorescence; cited from earlier work
Description: In a recent study[8] we investigated the capability of CIB2 to bind Ca^2+ and Mg^2+ thereby switching to a functionally distinct structural state. By integrating several biochemical and biophysical techniques we could establish that in the absence of any cation CIB2 forms a molten globule state that essentially lacks tertiary structure. […] This is quite unusual for Ca^2+-sensor pro ... || The second approach (direct peptide immobilization) led to very low signals and unreproducible results and was not pursued any further. […] In spite of such differences, which might ... || Interaction with α7B occurs in the region proximal to the membrane and not close to the C-terminus of the cytosolic domain of the integrin. The recognition between CIB2 and the α7B target is kinetically favored in the presence of physiological Mg^2+ and in the absence of Ca^2+ and it might induce binding of another CIB2 molecule. […] However, CIB2 per se binds a single peptide as a monomer, and the complex could then induce CIB2 dimerization, ...

[5] = target: integrin α7B peptide (Homo sapiens, UniProt Q13683, Mg2+ and Ca2+); assay: SPR
[6] = target: integrin α7B peptide (Homo sapiens, UniProt Q13683, Mg2+); assay: SPR
[7] = test system: CIB2; assay: Near-UV circular dichroism; format: physicochemical, human; settings: 20-30 µM, 37 °C, EGTA, 1 mM Mg^2+, 2 mM Ca^2+; 20 mM HEPES pH 7.5
Protocol: CIB2 tertiary structure was investigated by using a Jasco J-710 spectropolarimeter equipped with a Peltier type cell holder as previously described. Briefly: near-UV (250–320 nm) CD spectra of 20 μM of sole CIB2 or CIB2/α7B_M complexes (1:1 and 1:2 ratios) were collected in the presence of 500 μM EGTA and after sequential additions of 1 mM Mg^2+ and 2 mM free Ca^2+. A 1 cm quartz cuvette was used, temperature was set at 37 °C, integration time and data pitch were set to 4 s and 1 nm, respectively. Each spectrum represents the average of 5 accumulations. […]
Figure S4: Structural comparison of His-CIB2 (A) and CIB2 (B). Near-UV CD spectra (250-320 nm) of 20-30 µM CIB2 were collected at 37°C in a quartz cuvette with 1 cm length path. Sequential additions of 500 µM EGTA (black), 1 mM Mg2+ (blue) and 2 mM Ca2+ (red) were performed. Near-UV CD spectra of the buffer (20 mM HEPES pH 7.5, 150 mM KCl, 1 mM DTT) was considered as blank and subtracted. Each spectrum represents the mean of 5 accumulations. Data were normalized according to the protein concentration and the number of residues (Molar Residue Ellipticity, MRE).
Figure S5: Near-UV CD spectra of CIB2 in the presence of different stoichiometric ratios of alpha7B_M peptide. Near-UV CD spectra (250-320nm) of 20 μM CIB2 in the absence of peptide (black lines) and in the presence of two different protein/peptide ratios (1:1 blue lines; 1:2 red lines) collected at 37°C in the presence of 500 μM EGTA (A) and after sequential additions of 1 mM Mg2+ (B) and 2 mM free Ca2+ (C). The spectrum of alpha7B_M peptide in the absence of CIB2 is shown in dashed grey lines. […]

[8] = target: T2, His-tagged CIB2, human (TEV protease recognition site and His tag kept) (human, UniProt O75838 1-187); assay: SPR; His-tagged CIB2 captured by its His tag on a His-cap chip, then blocked via amine coupling; peptides injected (7.5 µM; α7B_M titrated 230 nM-30 µM); 20 mM HEPES pH 7.5, 150 mM KCl, 1 mM DTT, 1 mM Mg2+, 2 mM Ca2+, 50 µM EDTA, 0.005% Tween; bivalent analyte model and steady state analysis; apparent constants; settings: both partners purified
T2 construct: It was used only in the SPR experiments where CIB2 was captured by its His tag; also called His-CIB2
T2 sequence (looked up): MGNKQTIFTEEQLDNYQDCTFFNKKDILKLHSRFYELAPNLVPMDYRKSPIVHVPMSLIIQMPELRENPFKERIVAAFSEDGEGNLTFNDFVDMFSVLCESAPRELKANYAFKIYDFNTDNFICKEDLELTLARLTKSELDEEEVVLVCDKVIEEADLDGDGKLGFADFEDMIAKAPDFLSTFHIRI

[9] = target: T2, His-tagged CIB2, human (TEV protease …); assay: SPR; His-tagged CIB2 captured by its His tag on a His-cap chip, then blocked via amine coupling; α7B_M titrated 230 nM-30 µM in the presence of 1 mM Mg2+ without Ca2+; bivalent analyte model and steady state analysis; apparent constants; settings: both partners purified
[10] = target: T3, Calcium- and Integrin-Binding protein 2 (CIB2), human, untagged (human, UniProt O75838 1-187); assay: cross-linking; 10 µM CIB2 incubated with 5, 10 or 20 µM peptide, then 50-fold molar excess of DSBU for 20 min at room temperature; 20 mM HEPES pH 7.5, 1 mM DTT, 1 mM Mg2+, 2 mM Ca2+; read by MALDI-TOF-MS of the intact protein; settings: both partners purified
T3 construct: measured mass 21,767 Da by native ESI-MS; The printed mass (21.7 kDa) fits the whole protein; Residues may remain after TEV cleavage of the His tag; also called untagged CIB2; uncoupled CIB2
T3 sequence (looked up): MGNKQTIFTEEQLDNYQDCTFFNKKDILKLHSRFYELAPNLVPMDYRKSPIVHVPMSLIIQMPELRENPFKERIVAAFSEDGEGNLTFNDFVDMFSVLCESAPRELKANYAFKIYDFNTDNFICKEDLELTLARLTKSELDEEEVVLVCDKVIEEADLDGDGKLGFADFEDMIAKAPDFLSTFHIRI

integrin αIIb peptide (Homo sapiens), sequence (P08514 1014-1039): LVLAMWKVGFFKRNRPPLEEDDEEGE

CIB1 (from UniProt Q99828)
Kd [1]: 12 µM

KEFWGLHAKPRLKLMF [α7B_Scrb]
SPR interaction with CIB2 [2]: interact with low affinity
CIB2/peptide complex formation, 1:1 [3]: only minor signals for a 1:1 complex
fluorescence titration of CIB2 [4]: some non-specific signal

LAADGHPELGPDGHPGPGTA [α7B_C, peptide covering the C-terminal region of the cytoplasmic domain of α7B integrin]
SPR interaction with CIB2 [2]: could not detect any interaction

B1: CIB2 (protein)
chain: MGNKQTIFTEEQLDNYQDCTFFNKKDILKLHSRFYELAPNLVPMDYRKSPIVHVPMSLIIQMPELRENPFKERIVAAFSEDGEGNLTFNDFVDMFSVLCESAPRELKANYAFKIYDFNTDNFICKEDLELTLARLTKSELDEEEVVLVCDKVIEEADLDGDGKLGFADFEDMIAKAPDFLSTFHIRI
Kd [5]: 25 µM
Kd [6]: 11.6 µM

B2: His-tagged CIB2: CIB2 with the TEV protease recognition site and the Histag kept (protein)
chain: MGNKQTIFTEEQLDNYQDCTFFNKKDILKLHSRFYELAPNLVPMDYRKSPIVHVPMSLIIQMPELRENPFKERIVAAFSEDGEGNLTFNDFVDMFSVLCESAPRELKANYAFKIYDFNTDNFICKEDLELTLARLTKSELDEEEVVLVCDKVIEEADLDGDGKLGFADFEDMIAKAPDFLSTFHIRI
modifications: left off: His tag, end not stated, kept | TEV protease recognition site (ENLYFQ), end not stated, kept
near-UV CD, tertiary structure vs untagged CIB2 [7]: substantially the same tertiary structure of the untagged protein

B3: α7B_M peptide, membrane proximal segment of the cytoplasmic domain of α7B integrin (peptide)
peptide: Ac-LLLWKMGFFKRAKHPE-NH2
notes: integrin α7B, human, membrane proximal segment of the cytoplasmic domain; also called α7B peptide; source: synthetic peptide, bought: Genscript
Kd [8]: 154 µM
Kd [9]: 210 µM
stoichiometry N [10]: 1 peptide per CIB2 and 2 peptides per CIB2
